Measurements: the supplement of paper PMC5998384

Tests used:
HeLa Kyoto [1] = assay: solubility in G1/S (NP-40 vs SDS abundance) (log2 ratio); higher = more soluble; conditions: cell cycle stage: G1/S
HeLa Kyoto [2] = assay: melting temperature (median over replicates), in situ; higher = more thermally stable
HeLa Kyoto [3] = assay: solubility change mitosis vs G1/S (difference of NP-40 vs SDS log2 ratios) (log2 ratio difference); higher = more soluble in mitosis
HeLa Kyoto [4] = assay: thermal stability score vs G1/S (z-score of summed log2 fold changes over temperatures); higher = more thermally stable than in G1/S
[5] = cell cycle stage: early G1 (4.5 h after nocodazole release)
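For melting temperature (median over replicates), in situ in this document: HeLa Kyoto cells synchronized by double thymidine or nocodazole block, proteins quantified by TMT10plex mass spectrometry, three independent biological replicates.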
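For solubility change mitosis vs G1/S (difference of NP-40 vs SDS log2 ratios) in this document: synchronized HeLa Kyoto cells (double thymidine block for G1/S, nocodazole release for mitosis), protein amounts in NP-40 versus SDS lysates quantified by mass spectrometry, three biological replicates.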
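For solubility in G1/S (NP-40 vs SDS abundance) in this document: HeLa Kyoto cells arrested at G1/S by double thymidine block, proteins quantified by TMT10plex mass spectrometry in mild NP-40 versus SDS extracts, three biological replicates.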
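For thermal stability score vs G1/S (z-score of summed log2 fold changes over temperatures) in this document: synchronized HeLa Kyoto cells, proteins quantified by TMT10plex mass spectrometry, three biological replicates, mitosis taken 0.5 h after nocodazole release, G1/S directly after double thymidine block.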

| Sequence | solubility in G1/S (log2) (HeLa Kyoto [1]) | melting temperature (HeLa Kyoto [2]; cell cycle stage: G1/S) [°C] | melting temperature (HeLa Kyoto [2]; cell cycle stage: mitosis) [°C] | solubility change mitosis (log2) (HeLa Kyoto [3]) | thermal stability score (HeLa Kyoto [4]; [5]) | thermal stability score (HeLa Kyoto [4]; cell cycle stage: mitosis) |
| --- | --- | --- | --- | --- | --- | --- |
| MAVAVAMAGALIGSEPGPAEELAKLEYLSLVSKVCTELDNHLGINDKDLAEFVISLAEKNTTFDTFKASLVKNGAEFTDSLISNLLRLIQTMRPPAKPSTSKDPVVKPKTEKEKLKELFPVLCQPDNPSVRTMLDEDDVKVAVDVLKELEALMPSAAGQEKQRDAEHRDRTKKKKRSRSRDRNRDRDRDRERNRDRDHKRRHRSRSRSRSRTRERNKVKSRYRSRSRSQSPPKDRKDRDKYGERNLDRWRDKHVDRPPPEEPTIGDIYNGKVTSIMQFGCFVQLEGLRKRWEGLVHISELRREGRVANVADVVSKGQRVKVKVLSFTGTKTSLSMKDVDQETGEDLNPNRRRNLVGETNEETSMRNPDRPTHLSLVSAPEVEDDSLERKRLTRISDPEKWEIKQMIAANVLSKEEFPDFDEETGILPKVDDEEDEDLEIELVEEEPPFLRGHTKQSMDMSPIKIVKNPDGSLSQAAMMQSALAKERRELKQAQREAEMDSIPMGLNKHWVDPLPDAEGRQIAANMRGIGMMPNDIPEWKKHAFGGNKASYGKKTQMSILEQRESLPIYKLKEQLVQAVHDNQILIVIGETGSGKTTQITQYLAEAGYTSRGKIGCTQPRRVAAMSVAKRVSEEFGCCLGQEVGYTIRFEDCTSPETVIKYMTDGMLLRECLIDPDLTQYAIIMLDEAHERTIHTDVLFGLLKKTVQKRQDMKLIVTSATLDAVKFSQYFYEAPIFTIPGRTYPVEILYTKEPETDYLDASLITVMQIHLTEPPGDILVFLTGQEEIDTACEILYERMKSLGPDVPELIILPVYSALPSEMQTRIFDPAPPGSRKVVIATNIAETSLTIDGIYYVVDPGFVKQKVYNSKTGIDQLVVTPISQAQAKQRAGRAGRTGPGKCYRLYTERAYRDEMLTTNVPEIQRTNLASTVLSLKAMGINDLLSFDFMDAPPMETLITAMEQLYTLGALDDEGLLTRLGRRMAEFPLEPMLCKMLIMSVHLGCSEEMLTIVSMLSVQNVFYRPKDKQALADQKKAKFHQTEGDHLTLLAVYNSWKNNKFSNPWCYENFIQARSLRRAQDIRKQMLGIMDRHKLDVVSCGKSTVRVQKAICSGFFRNAAKKDPQEGYRTLIDQQVVYIHPSSALFNRQPEWVVYHELVLTTKEYMREVTTIDPRWLVEFAPAFFKVSDPTKLSKQKKQQRLEPLYNRYEEPNAWRISRAFRRR [DHX8] | -0.655 | 49.9 | 50.7 | 0.24 | 1.86 | 4.58 |
| MAVDITLLFRASVKTVKTRNKALGVAVGGGVDGSRDELFRRSPRPKGDFSSRAREVISHIGKLRDFLLEHRKDYINAYSHTMSEYGRMTDTERDQIDQDAQIFMRTCSEAIQQLRTEAHKEIHSQQVKEHRTAVLDFIEDYLKRVCKLYSEQRAIRVKRVVDKKRLSKLEPEPNTKTRESTSSEKVSQSPSKDSEENPATEERPEKILAETQPELGTWGDGKGEDELSPEEIQMFEQENQRLIGEMNSLFDEVRQIEGRVVEISRLQEIFTEKVLQQEAEIDSIHQLVVGATENIKEGNEDIREAIKNNAGFRVWILFFLVMCSFSLLFLDWYDS [STX18] | 0.186 | 50.1 | 50.8 | -0.0525 | 0.0563 | -0.262 |
| MAVEELQSIIKRCQILEEQDFKEEDFGLFQLAGQRCIEEGHTDQLLEIIQNEKNKVIIKNMGWNLVGPVVRCLLCKDKEDSKRKVYFLIFDLLVKLCNPKELLLGLLELIEEPSGKQISQSILLLLQPLQTVIQKLHNKAYSIGLALSTLWNQLSLLPVPYSKEQIQMDDYGLCQCCKALIEFTKPFVEEVIDNKENSLENEKLKDELLKFCFKSLKCPLLTAQFFEQSEEGGNDPFRYFASEIIGFLSAIGHPFPKMIFNHGRKKRTWNYLEFEEEENKQLADSMASLAYLVFVQGIHIDQLPMVLSPLYLLQFNMGHIEVFLQRTEESVISKGLELLENSLLRIEDNSLLYQYLEIKSFLTVPQGLVKVMTLCPIETLRKKSLAMLQLYINKLDSQGKYTLFRCLLNTSNHSGVEAFIIQNIKNQIDMSLKRTRNNKWFTGPQLISLLDLVLFLPEGAETDLLQNSDRIMASLNLLRYLVIKDNENDNQTGLWTELGNIENNFLKPLHIGLNMSKAHYEAEIKNSQEAQKSKDLCSITVSGEEIPNMPPEMQLKVLHSALFTFDLIESVLARVEELIEIKTKSTSEENIGIK [GLMN] | 0.0671 | 52.2 | 51.3 | -0.21 | 0.45 | 0.785 |
| MAVLLLLLRALRRGPGPGPRPLWGPGPAWSPGFPARPGRGRPYMASRPPGDLAEAGGRALQSLQLRLLTPTFEGINGLLLKQHLVQNPVRLWQLLGGTFYFNTSRLKQKNKEKDKSKGKAPEEDEEERRRRERDDQMYRERLRTLLVIAVVMSLLNALSTSGGSISWNDFVHEMLAKGEVQRVQVVPESDVVEVYLHPGAVVFGRPRLALMYRMQVANIDKFEEKLRAAEDELNIEAKDRIPVSYKRTGFFGNALYSVGMTAVGLAILWYVFRLAGMTGREGGFSAFNQLKMARFTIVDGKMGKGVSFKDVAGMHEAKLEVREFVDYLKSPERFLQLGAKVPKGALLLGPPGCGKTLLAKAVATEAQVPFLAMAGPEFVEVIGGLGAARVRSLFKEARARAPCIVYIDEIDAVGKKRSTTMSGFSNTEEEQTLNQLLVEMDGMGTTDHVIVLASTNRADILDGALMRPGRLDRHVFIDLPTLQERREIFEQHLKSLKLTQSSTFYSQRLAELTPGFSGADIANICNEAALHAAREGHTSVHTLNFEYAVERVLAGTAKKSKILSKEEQKVVAFHESGHALVGWMLEHTEAVMKVSITPRTNAALGFAQMLPRDQHLFTKEQLFERMCMALGGRASEALSFNEVTSGAQDDLRKVTRIAYSMVKQFGMAPGIGPISFPEAQEGLMGIGRRPFSQGLQQMMDHEARLLVAKAYRHTEKVLQDNLDKLQALANALLEKEVINYEDIEALIGPPPHGPKKMIAPQRWIDAQREKQDLGEEETEETQQPPLGGEEPTWPK [SPG7] | 0.0611 | 51.2 | 51.9 | -0.102 | 2.94 | 1.55 |
| MAVRSLWAGRLRVQRLLAWSAAWESKGWPLPFSTATQRTAGEDCRSEDPPDELGPPLAERALRVKAVKLEKEVQDLTVRYQRAIADCENIRRRTQRCVEDAKIFGIQSFCKDLVEVADILEKTTECISEESEPEDQKLTLEKVFRGLLLLEAKLKSVFAKHGLEKLTPIGDKYDPHEHELICHVPAGVGVQPGTVALVRQDGYKLHGRTIRLARVEVAVESQRRL [GRPEL2] | 0.335 |  | 48.4 | -0.104 | -0.696 | 2.19 |
| MAVTALAARTWLGVWGVRTMQARGFGSDQSENVDRGAGSIREAGGAFGKREQAEEERYFRAQSREQLAALKKHHEEEIVHHKKEIERLQKEIERHKQKIKMLKHDD [ATPIF1] | 0.903 | 56.8 | 56.9 | 0.408 | 3.16 | -2.08 |
| MAVTGWLESLRTAQKTALLQDGRRKVHYLFPDGKEMAEEYDEKTSELLVRKWRVKSALGAMGQWQLEVGDPAPLGAGNLGPELIKESNANPIFMRKDTKMSFQWRIRNLPYPKDVYSVSVDQKERCIIVRTTNKKYYKKFSIPDLDRHQLPLDDALLSFAHANCTLIISYQKPKEVVVAESELQKELKKVKTAHSNDGDCKTQ [DPCD] | 0.223 | 49.9 | 49 | -0.0049 | 0.4 | 0.716 |
| MAVVAAAAGWLLRLRAAGAEGHWRRLPGAGLARGFLHPAATVEDAAQRRQVAHFTFQPDPEPREYGQTQKMNLFQSVTSALDNSLAKDPTAVIFGEDVAFGGVFRCTVGLRDKYGKDRVFNTPLCEQGIVGFGIGIAVTGATAIAEIQFADYIFPAFDQIVNEAAKYRYRSGDLFNCGSLTIRSPWGCVGHGALYHSQSPEAFFAHCPGIKVVIPRSPFQAKGLLLSCIEDKNPCIFFEPKILYRAAAEEVPIEPYNIPLSQAEVIQEGSDVTLVAWGTQVHVIREVASMAKEKLGVSCEVIDLRTIIPWDVDTICKSVIKTGRLLISHEAPLTGGFASEISSTVQEECFLNLEAPISRVCGYDTPFPHIFEPFYIPDKWKCYDALRKMINY [BCKDHB] | -0.09 | 52.6 | 52 | -0.179 | -0.96 | -1.83 |
| MAVYRAALGASLAAARLLPLGRCSPSPAPRSTLSGAAMEPAPRWLAGLRFDNRALRALPVEAPPPGPEGAPSAPRPVPGACFTRVQPTPLRQPRLVALSEPALALLGLGAPPAREAEAEAALFFSGNALLPGAEPAAHCYCGHQFGQFAGQLGDGAAMYLGEVCTATGERWELQLKGAGPTPFSRQADGRKVLRSSIREFLCSEAMFHLGVPTTRAGACVTSESTVVRDVFYDGNPKYEQCTVVLRVASTFIRFGSFEIFKSADEHTGRAGPSVGRNDIRVQLLDYVISSFYPEIQAAHASDSVQRNAAFFREVTRRTARMVAEWQCVGFCHGVLNTDNMSILGLTIDYGPFGFLDRYDPDHVCNASDNTGRYAYSKQPEVCRWNLRKLAEALQPELPLELGEAILAEEFDAEFQRHYLQKMRRKLGLVQVELEEDGALVSKLLETMHLTGADFTNTFYLLSSFPVELESPGLAEFLARLMEQCASLEELRLAFRPQMDPRQLSMMLMLAQSNPQLFALMGTRAGIARELERVEQQSRLEQLSAAELQSRNQGHWADWLQAYRARLDKDLEGAGDAAAWQAEHVRVMHANNPKYVLRNYIAQNAIEAAERGDFSEVRRVLKLLETPYHCEAGAATDAEATEADGADGRQRSYSSKPPLWAAELCVTUSS [SELO] | -0.0646 | 47.8 | 49.1 | -0.115 | 3 | 3.57 |
| MAVYVGMLRLGRLCAGSSGVLGARAALSRSWQEARLQGVRFLSSREVDRMVSTPIGGLSYVQGCTKKHLNSKTVGQCLETTAQRVPEREALVVLHEDVRLTFAQLKEEVDKAASGLLSIGLCKGDRLGMWGPNSYAWVLMQLATAQAGIILVSVNPAYQAMELEYVLKKVGCKALVFPKQFKTQQYYNVLKQICPEVENAQPGALKSQRLPDLTTVISVDAPLPGTLLLDEVVAAGSTRQHLDQLQYNQQFLSCHDPINIQFTSGTTGSPKGATLSHYNIVNNSNILGERLKLHEKTPEQLRMILPNPLYHCLGSVAGTMMCLMYGATLILASPIFNGKKALEAISRERGTFLYGTPTMFVDILNQPDFSSYDISTMCGGVIAGSPAPPELIRAIINKINMKDLVVAYGTTENSPVTFAHFPEDTVEQKAESVGRIMPHTEARIMNMEAGTLAKLNTPGELCIRGYCVMLGYWGEPQKTEEAVDQDKWYWTGDVATMNEQGFCKIVGRSKDMIIRGGENIYPAELEDFFHTHPKVQEVQVVGVKDDRMGEEICACIRLKDGEETTVEEIKAFCKGKISHFKIPKYIVFVTNYPLTISGKIQKFKLREQMERHLNL [ACSF2] | 0.27 | 49.4 | 49.8 | -0.0628 | 0.261 | 0.668 |
| MAWRRREASVGARGVLALALLALALCVPGARGRALEWFSAVVNIEYVDPQTNLTVWSVSESGRFGDSSPKEGAHGLVGVPWAPGGDLEGCAPDTRFFVPEPGGRGAAPWVALVARGGCTFKDKVLVAARRNASAVVLYNEERYGNITLPMSHAGTGNIVVIMISYPKGREILELVQKGIPVTMTIGVGTRHVQEFISGQSVVFVAIAFITMMIISLAWLIFYYIQRFLYTGSQIGSQSHRKETKKVIGQLLLHTVKHGEKGIDVDAENCAVCIENFKVKDIIRILPCKHIFHRICIDPWLLDHRTCPMCKLDVIKALGYWGEPGDVQEMPAPESPPGRDPAANLSLALPDDDGSDDSSPPSASPAESEPQCDPSFKGDAGENTALLEAGRSDSRHGGPIS [RNF149] | -0.136 | 53.8 | 54.1 | -0.076 | -0.202 | -3.79 |
| MCDFTEDQTAEFKEAFQLFDRTGDGKILYSQCGDVMRALGQNPTNAEVLKVLGNPKSDEMNVKVLDFEHFLPMLQTVAKNKDQGTYEDYVEGLRVFDKEGNGTVMGAEIRHVLVTLGEKMTEEEVEMLVAGHEDSNGCINYEAFVRHILSG [MYL6] | -0.12 | 51.8 | 51.7 | 0.21 | -3.33 | -1.53 |
